Measurements: PMC3433420, “Comprehensive Binary Interaction Mapping of SH2 Domains via Fluorescence Polarization Reveals Novel Functional Diversification of ErbB Receptors” (PLoS ONE, 2012)
Several values for one entry are separate records, joined by “and”; a condition that tells them apart may be missing. Equal values may be shown once. Non-standard residues stand in square brackets, D forms with d. No end group written: not given here. pY = N[C@@H](Cc1ccc(OP(=O)(O)O)cc1)C(=O)O; Rhodamine = not defined here; rhodamine = not defined here

Assays:
Settings in all cases: both partners purified
SRC SH2 domain = biological target: T1, SRC SH2 domain (human, UniProt P12931-1 151-248); experiment: fluorescence polarisation; saturation binding in solution: rhodamine peptide fixed at 10 nM, protein titrated 0.002-10 uM, 20 min at room temperature; assay buffer 20 mM HEPES, 100 mM KCl, 0.1% Tween-20, 5 mM DTT, pH 7.8; apparent KD
T1 construct: SRC, human; also called c-Src; source: bacterial expression, purified

PTK6 SH2 domain = biological target: T2, PTK6 SH2 domain (human, UniProt Q13882 78-170); experiment: as above
T2 construct: PTK6, human; source: bacterial expression, purified
T2 sequence (Q13882 78-170): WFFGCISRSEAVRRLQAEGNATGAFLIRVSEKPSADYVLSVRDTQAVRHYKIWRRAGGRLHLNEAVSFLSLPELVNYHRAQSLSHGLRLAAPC

GRB7 SH2 domain = biological target: T3, GRB7 SH2 domain (human, UniProt Q14451 431-527); experiment: as above
T3 construct: GRB7, human; source: bacterial expression, purified
T3 sequence (Q14451 431-527): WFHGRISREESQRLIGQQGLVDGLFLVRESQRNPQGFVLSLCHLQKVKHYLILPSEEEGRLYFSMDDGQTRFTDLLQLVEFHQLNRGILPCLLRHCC

BLNK SH2 domain = biological target: T4, BLNK SH2 domain (human, UniProt Q8WV28 346-453); experiment: peptide or protein array; SH2/PTB proteins spotted on aldehyde slides, rhodamine peptide titrated in buffer B (20 mM HEPES, 100 mM KCl, 0.1% Tween-20, 5 mM DTT, pH 7.8), 1 h at room temperature; replicate assays
T4 construct: BLNK, human; source: bacterial expression, purified
T4 sequence (looked up): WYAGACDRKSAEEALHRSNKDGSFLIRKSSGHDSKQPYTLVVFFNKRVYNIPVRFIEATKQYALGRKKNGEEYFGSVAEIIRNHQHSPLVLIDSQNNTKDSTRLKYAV

SHC1 domain construct = biological target: T5, SHC1 domain construct (human); experiment: as above
T5 chain: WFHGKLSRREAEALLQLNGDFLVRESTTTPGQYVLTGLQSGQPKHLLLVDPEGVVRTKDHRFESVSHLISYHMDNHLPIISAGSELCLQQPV

ABL2 SH2 domain = biological target: T6, ABL2 SH2 domain (human, UniProt P42684 173-263); experiment: as above
T6 construct: ABL2, human; source: bacterial expression, purified
T6 sequence (looked up): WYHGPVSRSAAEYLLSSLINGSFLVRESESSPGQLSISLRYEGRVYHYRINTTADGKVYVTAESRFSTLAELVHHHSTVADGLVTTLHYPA

YES1 SH2 domain = biological target: T7, YES1 SH2 domain (human, UniProt P07947 158-255); experiment: as above
T7 construct: YES1, human; source: bacterial expression, purified
T7 sequence (P07947 158-255): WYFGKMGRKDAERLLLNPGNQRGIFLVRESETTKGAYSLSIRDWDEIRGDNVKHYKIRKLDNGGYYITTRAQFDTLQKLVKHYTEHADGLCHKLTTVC

GRAP2 SH2 domain = biological target: T8, GRAP2 SH2 domain (human, UniProt O75791 58-149); experiment: as above
T8 construct: GRAP2, human; source: bacterial expression, purified
T8 sequence (looked up): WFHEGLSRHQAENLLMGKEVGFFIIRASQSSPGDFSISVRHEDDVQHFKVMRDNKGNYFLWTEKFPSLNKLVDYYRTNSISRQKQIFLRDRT

STAP1 SH2 domain = biological target: T9, STAP1 SH2 domain (human, UniProt Q9ULZ2 177-280); experiment: as above
T9 construct: STAP1, human; source: bacterial expression, purified
T9 sequence (looked up): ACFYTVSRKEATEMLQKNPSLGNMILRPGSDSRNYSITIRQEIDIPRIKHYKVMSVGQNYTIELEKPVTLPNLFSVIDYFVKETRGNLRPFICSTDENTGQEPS

ITK SH2 domain = biological target: T10, ITK SH2 domain (human, UniProt Q08881 239-338); experiment: as above
T10 construct: ITK, human; source: bacterial expression, purified
T10 sequence (looked up): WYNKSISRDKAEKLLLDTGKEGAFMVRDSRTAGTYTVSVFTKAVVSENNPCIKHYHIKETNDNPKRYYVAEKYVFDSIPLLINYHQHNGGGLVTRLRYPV

SH2D3A SH2 domain = biological target: T11, SH2D3A SH2 domain (human, UniProt Q9BRG2 15-114); experiment: as above
T11 construct: SH2D3A, human; source: bacterial expression, purified
T11 sequence (Q9BRG2 15-114): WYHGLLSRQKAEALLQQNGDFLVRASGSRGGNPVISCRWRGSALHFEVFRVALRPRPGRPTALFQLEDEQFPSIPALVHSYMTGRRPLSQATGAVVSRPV

SUPT6H SH2 domain = biological target: T12, SUPT6H SH2 domain (human, UniProt Q7KZ85 1325-1431); experiment: as above
T12 construct: SUPT6H, human; source: bacterial expression, purified
T12 sequence (Q7KZ85 1325-1431): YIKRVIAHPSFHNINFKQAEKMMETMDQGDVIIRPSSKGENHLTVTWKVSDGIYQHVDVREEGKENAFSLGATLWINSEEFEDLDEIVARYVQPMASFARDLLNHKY

SYK tandem SH2 domains = SYK tandem SH2 domains (human); experiment: as above
SHF SH2 domain = biological target: T13, SHF SH2 domain (human, UniProt Q7M4L6 323-418); experiment: as above
T13 construct: SHF, human; source: bacterial expression, purified
T13 sequence (looked up): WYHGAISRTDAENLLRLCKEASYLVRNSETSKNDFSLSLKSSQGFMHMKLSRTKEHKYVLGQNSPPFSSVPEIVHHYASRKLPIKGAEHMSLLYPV

LCK SH2 domain = biological target: T14, LCK SH2 domain (human, UniProt P06239 127-224); experiment: as above
T14 construct: LCK, human; source: bacterial expression, purified
T14 sequence (P06239 127-224): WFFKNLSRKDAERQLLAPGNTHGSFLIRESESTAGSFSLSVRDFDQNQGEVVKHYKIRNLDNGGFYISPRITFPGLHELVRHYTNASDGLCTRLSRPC

BLK SH2 domain = biological target: T15, BLK SH2 domain (human, UniProt P51451 124-220); experiment: as above
T15 construct: BLK, human; source: bacterial expression, purified
T15 sequence (P51451 124-220): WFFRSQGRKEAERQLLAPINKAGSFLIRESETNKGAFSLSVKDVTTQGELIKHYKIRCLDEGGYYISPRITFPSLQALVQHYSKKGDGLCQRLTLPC

[1] = biological target: T16, PIK3R1 N-terminal SH2 domain (human); experiment: SPR; Biacore 3000; 6X His SH2 proteins held on a Ni-NTA chip, dye-free peptides in solution, equilibrium
T16 construct: PIK3R1, human; source: bacterial expression, purified

TNS3 SH2 domain = biological target: T17, TNS3 SH2 domain (human, UniProt Q68CZ2 1172-1282); experiment: as above
T17 construct: TNS3, human; source: bacterial expression, purified
T17 sequence (looked up): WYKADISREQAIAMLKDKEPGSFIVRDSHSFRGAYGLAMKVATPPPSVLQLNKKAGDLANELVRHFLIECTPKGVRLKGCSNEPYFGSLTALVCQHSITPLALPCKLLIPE

[2] = biological target: T18, SYK C-terminal SH2 domain (human); experiment: as above
T18 construct: SYK, human; source: bacterial expression, purified

[3] = biological target: T19, PIK3R3 C-terminal SH2 domain (human); experiment: as above
T19 construct: PIK3R3, human; source: bacterial expression, purified

VAV2 SH2 domain = biological target: T20, VAV2 SH2 domain (human, UniProt P52735 673-767); experiment: as above
T20 construct: VAV2, human; source: bacterial expression, purified
T20 sequence (looked up): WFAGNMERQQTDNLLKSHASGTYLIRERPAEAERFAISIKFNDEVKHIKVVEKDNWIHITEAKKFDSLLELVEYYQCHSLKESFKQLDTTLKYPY

[4] = biological target: T21, PLCG1 C-terminal SH2 domain (human); experiment: as above
T21 construct: PLCG1, human; source: bacterial expression, purified
T21 sequence (P19174 whole entry, looked up): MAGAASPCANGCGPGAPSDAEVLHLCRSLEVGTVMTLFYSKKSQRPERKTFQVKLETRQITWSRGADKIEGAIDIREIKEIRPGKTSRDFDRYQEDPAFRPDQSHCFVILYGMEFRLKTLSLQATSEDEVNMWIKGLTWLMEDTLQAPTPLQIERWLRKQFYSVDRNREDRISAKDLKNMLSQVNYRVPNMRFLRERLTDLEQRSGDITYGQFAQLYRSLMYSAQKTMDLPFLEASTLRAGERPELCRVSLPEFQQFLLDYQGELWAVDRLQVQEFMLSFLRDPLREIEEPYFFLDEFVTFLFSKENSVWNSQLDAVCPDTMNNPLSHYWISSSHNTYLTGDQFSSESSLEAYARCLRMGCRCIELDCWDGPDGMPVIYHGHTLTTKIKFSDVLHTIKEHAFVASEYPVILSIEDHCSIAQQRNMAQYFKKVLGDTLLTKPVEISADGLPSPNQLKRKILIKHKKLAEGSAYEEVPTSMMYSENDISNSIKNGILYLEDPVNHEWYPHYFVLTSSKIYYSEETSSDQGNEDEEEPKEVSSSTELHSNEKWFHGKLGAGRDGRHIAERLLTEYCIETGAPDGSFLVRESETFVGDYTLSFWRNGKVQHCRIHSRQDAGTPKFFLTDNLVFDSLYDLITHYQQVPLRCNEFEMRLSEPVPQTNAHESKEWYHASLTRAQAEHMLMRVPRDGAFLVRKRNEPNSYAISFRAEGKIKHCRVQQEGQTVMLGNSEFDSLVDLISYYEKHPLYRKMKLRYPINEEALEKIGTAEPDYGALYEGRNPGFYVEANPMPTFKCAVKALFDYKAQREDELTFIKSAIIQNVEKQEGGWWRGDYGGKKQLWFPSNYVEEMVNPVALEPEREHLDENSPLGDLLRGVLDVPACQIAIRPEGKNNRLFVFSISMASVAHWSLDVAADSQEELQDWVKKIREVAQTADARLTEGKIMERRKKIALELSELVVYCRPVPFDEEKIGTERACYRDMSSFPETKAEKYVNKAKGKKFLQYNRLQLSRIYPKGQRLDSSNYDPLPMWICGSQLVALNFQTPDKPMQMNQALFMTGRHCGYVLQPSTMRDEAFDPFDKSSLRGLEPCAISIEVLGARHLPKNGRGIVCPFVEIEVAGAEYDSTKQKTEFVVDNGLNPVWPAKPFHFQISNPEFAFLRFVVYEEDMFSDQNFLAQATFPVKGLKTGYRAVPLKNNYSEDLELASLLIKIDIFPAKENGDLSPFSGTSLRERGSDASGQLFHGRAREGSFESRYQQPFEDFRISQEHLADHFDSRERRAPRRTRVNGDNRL

B1: ErbB3pY1222 phosphopeptide, rhodamine-labelled (peptide)
peptide: rhodamine-EELG[pY]EYMDVGSD
modifications: reading uncertain
notes: human ErbB3 around Tyr1222; also called labeled peptide 5; source: synthetic peptide
Kd (SRC SH2 domain): 2330 nM

B2: ErbB3pY1197 phosphopeptide, rhodamine-labelled (peptide)
peptide: Rhodamine-EDEE[pY]EYMNRRRD
modifications: reading uncertain
notes: human ErbB3 around Tyr1197; also called labeled peptide 4; source: synthetic peptide
Kd (PTK6 SH2 domain): 5790 nM | Kd (GRB7 SH2 domain): 130 nM

Rhodamine-PLQR[pY]SEDPTVPD (reading uncertain) [ErbB2 pY1112 phosphopeptide, rhodamine-labelled, for protein microarrays]
Kd (BLNK SH2 domain): 4900 nM | Kd (SHC1 domain construct): 1260 nM and 3060 nM | Kd (ABL2 SH2 domain): 1840 nM | Kd (YES1 SH2 domain): 720 nM and 1600 nM | Kd (GRAP2 SH2 domain): 7150 nM | Kd (STAP1 SH2 domain): 50 nM | Kd (ITK SH2 domain): 52900 nM | Kd (SH2D3A SH2 domain): 26600 nM | Kd (SUPT6H SH2 domain): 1040 nM | Kd (SYK tandem SH2 domains): 893 nM and 803 nM | Kd (SHF SH2 domain): 2970 nM | Kd (LCK SH2 domain): 10300 nM and 8930 nM | Kd (BLK SH2 domain): 3220 nM and 1170 nM and 2070 nM

PDPL[pY]EVMLKCW [MET pY1313 phosphopeptide, dye-free]
Kd [1]: 53 nM | Kd (TNS3 SH2 domain): 132 nM | Kd [2]: 1660 nM | Kd [3]: 56 nM | Kd (VAV2 SH2 domain): 2510 nM | Kd [4]: 486 nM
